Columns and labels:
Test in all cases: fluorescence anisotropy
[1] = target: NCp9 (NCp7-SP2) (HIV-1 NL4-3, UniProt P12493 378-448)
[2] = target: NCp7 (mature nucleocapsid) (HIV-1 NL4-3, UniProt P12493 378-432)
[3] = target: NCp15 WT (NCp7-SP2-p6) (HIV-1 NL4-3, UniProt P12493 378-500)

B1: JL936 (20-nt ssDNA) (ssDNA)
DNA: AGCTGCTTTTTGCCTGTACT
Question: How did the Kd [1] turn out when B1 was run?
Answer: 45 nM

Question: And the Kd [2]?
Answer: 176 nM

Question: What about the Kd [3] of the same binder?
Answer: 151 nM
